Experiment [1] has as its target T1, CaN PxIxIT binding site (CaNA, catalytic subunit of calcineurin) (Homo sapiens, UniProt Q08209, L343A/M347D/Y341S).
T1 construct: GST; made in house; host or cells: E. coli BL21
Put plainly: Fluorescence Polarization (FP) competition assay with FITC-labeled PVIVIT peptide. As to conditions: for IC50: competition with 100 nM FITC-labeled PVIVIT peptide, 4 uM CaNA, single site inhibition model, read-out: IC50: half maximal inhibitory concentration; for ability to compete with PVIVIT for CaN binding: result in words. Here is the method:
(§1) Fluorescence Polarization (FP) competition assay. Fluorescence measurements were performed on samples arrayed in a 96-well plate using Biotek HybridHI reader equipped with a polarized optic system. All measurements were done in triplicate. […] Experimental polarization data from simple and competitive binding experiments were fitted using GraphPad Prism7, with error bars representing standard deviation.
Selected peptides were synthesized and their ability to specifically bind the CaN PxIxIT binding site was evaluated by FP competition assay.
(§2) Polarization levels were read and normalized values were fitted to a single site model.
The above peptides are synthesized and their ability to specifically bind the CaN PxIxIT binding site is evaluated by FP competition assay. […] After fitting the polarization values to a single site inhibition model, the corresponding IC50 values are extracted.

Experiment [2] deals with T2, Catalytic subunit of calcineurin (CaNA), residues 2-347 with substitutions Y341S, L343A and M347D (UniProt Q08209 2-347).
T2 construct: range 2-347; Expressed as a cleavable GST fusion and purified on a GST column and by size exclusion; The microarray used GST-tagged CaN; also called Cn
T2 sequence (Q08209 2-347 Y341S/L343A/M347D): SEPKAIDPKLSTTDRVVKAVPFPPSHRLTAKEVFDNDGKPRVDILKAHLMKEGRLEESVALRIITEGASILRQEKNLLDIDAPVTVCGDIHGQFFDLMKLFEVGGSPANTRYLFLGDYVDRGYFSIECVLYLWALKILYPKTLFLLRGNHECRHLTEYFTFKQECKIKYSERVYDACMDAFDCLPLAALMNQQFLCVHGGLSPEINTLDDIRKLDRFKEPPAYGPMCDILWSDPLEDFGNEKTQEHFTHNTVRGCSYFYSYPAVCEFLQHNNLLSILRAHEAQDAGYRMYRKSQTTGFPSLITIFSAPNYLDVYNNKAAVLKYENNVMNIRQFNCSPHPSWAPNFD
Put plainly: FP competition assay against FITC-PVIVIT (100 nM) on CaNA (4 uM); single site inhibition fit. Here is the method: as §1
(§3) Selected peptides were synthesized and their ability to specifically bind the CaN PxIxIT binding site was evaluated by FP competition assay. […] After fitting the polarization values to a single site inhibition model, the corresponding IC₅₀ values were extracted and reported in Table 2.

The target of experiment [3] is T2, Catalytic subunit of calcineurin …. Nature of the experiment: fluorescence polarization competition; unlabeled peptide titrated against 100 nM FITC-labeled PVIVIT bound to 4 uM CaNA. Here is the method: as §1, §3, §2
(In general: In fluorescence polarisation assays a small probe gives low polarisation when free and higher when bound to something large.)

For experiment [4] the target is unchanged. Nature of the experiment: FP competition assay against FITC-PVIVIT on CaNA. Here is the method:
as §1, §3

T1 sequence (Q08209 2-347 Y341S/L343A/M347D): as above

Consider “Ac-ADEAVPQIIISAEELP-NH2 [TRESK, reference compound]”, for which the IC50 in experiment [1] turned out to be 54 µM.

Ac-ADGAGVGIVITVTEAE-NH2 [rbmAKAP79_2]: the “ability to compete with PVIVIT for CaN binding” value in experiment [1] was “successfully competed with PVIVIT binding”.

For the molecule Ac-ADEAIPEIVISKPEEP-NH2 [rbmTRESK], in experiment [1], the IC50 came out at 14 µM. Moreover, the “IC50 relative to closest natural counterpart (human TRESK fragment)” value in experiment [1] (rbmTRESK vs natural TRESK fragment) was “almost four times lower”.

Ac-AAGAGVGIVITVTEAE-NH2 [rbmAKAP79]: the “ability to compete with PVIVIT for CaN binding” value in experiment [1] is “successfully competed with PVIVIT binding”.

Regarding Ac-AAGAGVGIVITVTEAE-NH2 (designed binder) [rbmAKAP79], in experiment [2], the IC50 was 57 µM.

Regarding Ac-ADGAGVGIVITVTEAE-NH2 (designed binder) [rbmAKAP79_2], in experiment [2], the IC50 came out at 69 µM.

In the case of Ac-ADEAIPEITITSAELP-NH2 (designed binder) [rbmTRESK_2], the IC50 in experiment [2] came to 60 µM.

On to Ac-ADEAIPEIVISKPEEP-NH2 (designed binder) [rbmTRESK], for which, in experiment [3], the “IC50 (read off the curve)” value is approximately 10 µM. Moreover, the “fold lower IC50 than the CaN-binding fragment of human TRESK protein (SEQ ID NO: 3)” value in experiment [4] is approximately 4 fold.

On to Ac-ASVSNPEITVTSAETE-NH2 (designed binder) [rbmRIPOR2], for which the IC50 in experiment [2] came out at 79 µM.

Ac-HVSSSPRITITPTQHR-NH2 (designed binder) [rbmRIPOR2_2]: the IC50 in experiment [2] came to 200 µM.

(Values after US20250326797A1, “PROTEIN-PROTEIN INTERACTION MODULATORS AND METHODS FOR DESIGN THEREOF” (RAMOT AT TEL AVIV UNIVERSITY LTD., priority 2022, published 2025).)
